{
  "source": "patent US20030215880A1",
  "about": "(Scripps Research, published 2003)",
  "binders": {"B1": {"name": "Fab D13 (Fab, V domains shown)", "VH": "VQLLEQSGAELVKPGASVKLSCTTSGLNIEDYYIHWVKQRPEQGLEWIGRIDPENGETLYAPEFQGKATITADTSSNTVYLQLRSLTSEDTAIYYCGRFDGNGWYLDVWGAGTTVTVSS", "VL": "not shown"}, "B2": {"name": "Fab b12 (Fab, V domains shown)", "VH": "QVQLVQSGAEVKKPGASVKVSCQASGYRFSNFVIHWVRQAPGQRFEWMGWINPYNGNKEFSAKFQDRVTFTADTSANTAYMELRSLRSADTAVYYCARVGPYSWDDSPQDNYYMDVWGKGTTVIVSS", "VL": "EIVLTQSPGTLSLSPGERATFSCRSSHSIRSRRVAWYQHKPGQAPRLVIHGVSNRASGISDRFSGSGSGTDFTLTITRVEPEDFALYYCQVYGASSYTFGQGTKLERKR"}, "B3": {"name": "IgG1 b12 (antibody, V domains shown)", "VH": "B2 VH", "VL": "B2 VL", "notes": "Human IgG1"}},
  "key": {"[1]": {"molecular_target": "T1, PrP^c, cellular isoform of the mouse prion protein (mouse, UniProt P04925 23-230)", "T1 sequence (P04925 23-230 limits assumed)": "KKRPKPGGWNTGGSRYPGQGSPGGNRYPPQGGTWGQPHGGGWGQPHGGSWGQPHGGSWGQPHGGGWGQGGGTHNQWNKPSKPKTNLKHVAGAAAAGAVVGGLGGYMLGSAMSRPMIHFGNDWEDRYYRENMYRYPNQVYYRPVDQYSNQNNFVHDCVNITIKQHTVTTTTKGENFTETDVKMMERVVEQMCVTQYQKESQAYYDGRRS", "assay": "immunoprecipitation from normal mouse brain homogenate, positive control"}, "[2]": {"molecular_target": "T1, PrP^c, cellular isoform of the mouse …", "assay": "immunoprecipitation from normal mouse brain homogenate, western blot"}},
  "data": [
    {"binder": "B1", "values": [
      {"measurement": "binding result", "setting": "[1]", "result": "binds"}
    ]},
    {"binder": "B2", "values": [
      {"measurement": "binding result", "setting": "[2]", "result": "no binding"}
    ]},
    {"binder": "B3", "values": [
      {"measurement": "binding result", "setting": "[2]", "result": "no binding"}
    ]}
  ]
}
